Consider two substances from patent publication US6221617A, “Bioassay for growth hormone releasing hormone” (priority 1997, dated 2001).

Read-outs that look alike come from different tables or passages of the source.

Series [1] has as its system rat anterior pituitary cell cultures. Briefly: Rat primary anterior pituitary cell bioassay (GH release, radioimmunoassay). The class given is cell-based. Here is the method:
Rat anterior pituitary cell cultures were prepared for measuring the biological activity of GHRH, GHRH-induced release of GH was quantified using radioimmunoassay. Anterior pituitaries from fifteen female Sprague-Dawley rats were placed in a solution of Gey's media supplemented with 1% BSA, 0.25% glucose, and 0.2 mM MEM non essential amino acids at pH 7.4. Cell dispersion was performed in a solution of 400 U/ml trypsin in supplemented Gey's media for 30 minutes, 1750 KU/ml DNase-I in supplemented Gey's media for 5 minutes, and cells were triturated 15-30 times in 0.6 mg/ml lima bean trypsin inhibitor in supplemented Gey's media. Cells were filtered thru 160 u and 100 u mesh and centrifuged for 3 minutes at 1100 RPM and 12 minutes at 1600 rpm. Cell pellet was suspended at 3×10^5 cells/ml in DMEM supplemented with 10% fresh rat serum, 3% horse serum, 2.5% fetal calf serum, 2% Antibiotic-Antimycotic, 0.3% Fungizone, 0.45% glucose, 25 mM Hepes, 4 mM glutamine, 1 mM sodium pyruvate, 1 nM 3,3',5-triiodo-L -thyronine (T3), 100 nM dexamethazone and 10 uM MEM non essential amino acids. Cells were plated at 1 ml/well in 24 well plates and incubated at 8% CO2 at 37 C. for 68-72 hours. To stimulate cells with hormones, cells were washed three times in Gey's media supplemented with 1% BSA, 0.45% glucose and 25 mM Hepes. GHRH (1-44)NH2 was added to cells in 1 ml of supplemented Gey's media and cells were incubated for 3 hours before collecting media. Rat growth hormone levels were quantitated using a radioimmunoassay kit (Amersham).
(§1) Predicted variances in SEAP responses=0.32×(Y)^154.

Series [2] deals with T1, porcine GHRH receptor (Sus scrofa, UniProt P34999).
T1 sequence (P34999 23-423): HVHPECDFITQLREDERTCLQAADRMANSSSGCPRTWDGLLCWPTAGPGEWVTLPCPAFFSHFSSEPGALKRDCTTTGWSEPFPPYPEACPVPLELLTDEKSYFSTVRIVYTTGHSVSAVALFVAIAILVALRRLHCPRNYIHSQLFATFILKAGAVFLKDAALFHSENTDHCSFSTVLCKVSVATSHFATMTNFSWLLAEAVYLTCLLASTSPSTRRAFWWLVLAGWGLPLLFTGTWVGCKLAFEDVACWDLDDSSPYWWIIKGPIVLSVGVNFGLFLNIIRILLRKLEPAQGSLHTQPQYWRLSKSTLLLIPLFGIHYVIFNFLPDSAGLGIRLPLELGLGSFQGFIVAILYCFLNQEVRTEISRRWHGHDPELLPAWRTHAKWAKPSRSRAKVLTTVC
Experimental: Assays for secreted alkaline phosphatase (SEAP) were performed using the chemiluminescent substrate in the Great Escape Detection Kit (Clontech). Culture medium was centrifuged at 14000 rpm in a microfuge centrifuge to remove cell debris. One hundred microliters of culture medium was then added to 300 ul of dilution buffer and heated at 65 C. for 30 minutes. Samples were cooled to room temperature and 100 ul of diluted sample was added to 100 ul of assay buffer. Samples were allowed to set for 5 minutes. One hundred microliters of the CSPD substrate solution was then added to each sample, incubated in the dark for 10 minutes and read on a Wallac LKB 1251 tube luminometer.
A stable transfection was performed in pGHRHr/293 cells using the cAMP-responsive SEAP reporter construct, pha180SEAPpur and stable transfectants were selected on the basis of puromycin resistance. pha180SEAPpur was transfected into pGHRHr/293 cells at 1, 2, 4, 8 and 16 ug/ml Opti-MEM using 8 ul of Lipofectin/ml in six well culture plates. After six hours, 1 ml of 20% fetal calf serum in DME (high glucose) was added to the cells. Twenty-four hours post-transfection the cells were subcultured 1:18 and were incubated in 250 ug/ml G418. Forty-eight hours post-transfection the media was replaced with selectable medium containing 250 ug/ml G418 and 1 ug/ml puromycin. Cells were incubated for three weeks and picked using Trypsin-EDTA treated Whatman 3MM paper and placed in 24 well plates. Upon growing stable isolates to confluency in T75 cm^2 culture flasks, pGHRHr/SEAP/293 cells were removed from flasks, plated in 24 well plates at 1×10^5 cells/well and stimulated with various doses of recombinant human GHRH (1-44)NH2. Media was collected and assayed for secreted placental alkaline phosphatase. Time course studies were performed over a 20 hour period to determine the optimal time to remove media samples from the tissue cultures during stimulation with GHRH. Comparisons of synthetic and recombinant human GHRH (1-44)NH2 (10^-13 to 10^-7 M) were also made. Data was analyzed using FOURFIT and ALLFIT, four parameter logistic curve fitting programs.
Sigmoidal dose response curves were fit by four parameter logistic curve fitting using FOURFIT (Grotjan and Steinberger, 1977), with multiple curves being compared using ALLFIT (DeLean et al.,1978). […] For cAMP and SEAP bioassays, a weighted regression analysis was performed with weights assigned as the reciprocal of predicted variance.

Series [3] has as its target T1, porcine GHRH receptor. Briefly: SEAP reporter expression in pGHRHr/293 cells transiently transfected with pha180SEAP. It counts as cell-based. Details: host or cells: human fetal kidney 293 cells (pGHRHr/293), stably expressing, G418-selected. As to conditions: transiently transfected pGHRHr/293 cells, 6 hours. As to the method: Samples were allowed to set for 5 minutes.
The efficacy of the cAMP-responsive promoter was evaluated by transient transfection assays using 293 and pGHRHr/293 cells. Transiently transfected 293 cells were stimulated with 1 mM 8-bromo cAMP for 20 hours, while pGHRHr/293 cells were stimulated with various concentrations of recombinant human GHRH for 6 hours.
The ability of GHRH to stimulate the expression of the SEAP reporter cDNA was evaluated using pGHRHr/293 cells transiently transfected with pha180SEAP. Cells were incubated with various doses of GHRH(1-44)NH2 (10^-10 to 10^-6 M) for 6 hours and media was then assayed for SEAP activity.

The target in series [4] is T1, porcine GHRH receptor. Nature of the series: cAMP accumulation assay of the pGHRHr/293 cell line. The class given is cell-based. Details: host or cells: human fetal kidney 293 cells (pGHRHr/293), stably expressing, G418-selected. The note with it: pGHRHr/293 cells, 45 minutes, 10^-12 to 10^-6 M. Here is the method: The media was then replaced with DME containing 0.1% BSA and 0.1 mM 3-isobutyl-1-methyl-xanthine. Doses of recombinant human GHRH (1-44)NH2 doses, 1×10^-6 M to 1×10^-12 M, were added and the cells were incubated for 45 minutes at 37° C. They were lysed in 60% ethanol and cAMP levels were quantitated by an immunoassay kit (Amersham). After performing the cAMP EIA, data was analyzed using Fourfit, a four parameter logistic curve fitting program.
as §1
(Changes in cAMP serve as a functional read-out for many G protein-coupled receptors.)

Setting [5] is: pGHRHr/SEAP/293 cells, 16 hour incubation.
[6] abbreviates: primary rat pituitary cell cultures, 3 hours.

Take “synthetic human GHRH (1-44)NH2: Synthetic human GHRH(1-44)NH2 purchased from Peninsula; reference preparation [reference compound]”: the EC50 in series [1] (primary rat pituitary cell cultures, 3 hours, read-out: ED50 of GH secretion) was 0.364 nM; in the series with porcine GHRH receptor [2] (read-out: calculated ED50 of SEAP expression, pGHRHr/SEAP/293 cells, 16 hour incubation), 0.0778 nM. Besides, in the series with porcine GHRH receptor [2] (human, pghrhr/seap/293 cells, 16 h), the “increase in SEAP expression” value came out at 9.1 fold. Further, in the series with porcine GHRH receptor [2] (setting [5]), the minimal detectable dose was 1.47 pM.
Consider “recombinant human GHRH (1-44)NH2: Recombinant human GHRH(1-44)NH2 obtained from BioNebraska, Inc. as a powder”, for which, in the series with porcine GHRH receptor [3] (10^-10 to 10^-6 M), the “increase in the expression of the reporter protein (SEAP)” value came out at 2.5 fold. Also, in the series with porcine GHRH receptor [3], the “ED50 of SEAP reporter expression” value amounted to 0.51 nM. Further, in series [1] (setting [6]), the “ED50 of GH secretion” value is 2.16±1.04×10^-10 M. In addition, in series [1] (setting [6]), the “increase in GH secretion into the medium” value amounted to 3.1 fold. For the same substance, the “potency relative to synthetic GHRH (times as potent)” value was 1.69±0.67 times in series [1] (rat pituitary bioassay) and 1.83±0.13 times in the series with porcine GHRH receptor [2] (pGHRHr/SEAP/293 reporter bioassay, p<0.0001). In addition, the “calculated ED50 of SEAP dose-response curves” value with porcine GHRH receptor [2] (after 12, 14, 16 and 18 hours of exposure, not significantly different) was 0.261 nM. For the same substance, the “SEAP activity increase over the 12-16 hour time points” value is listed as 1.3 fold with porcine GHRH receptor [2] (at 18 hours) and 1.7 fold with porcine GHRH receptor [2] (at 20 hours). In addition, the “increase in SEAP activity” value with porcine GHRH receptor [2] (pGHRHr/SEAP/293 #815-4, between 12 and 18 hours of exposure) turned out to be 4.8 fold. In the series with porcine GHRH receptor [2] (setting [5]), the “calculated ED50 of SEAP expression” value is reported as 4.26±0.28×10^-11 M. Besides, in the series with porcine GHRH receptor [2] (pGHRHr/SEAP/293 cells, 16 hour incubation, 10^-13 to 10^-7 M), the “increase in SEAP expression” value is recorded as 9.1 fold. Also, the “calculated ED50 of increase in intracellular cAMP concentration” value in the series with porcine GHRH receptor [4] is 8.4±3.6×10^-9 M.
